Reference: the supplement of paper PMC9732359
± gives the uncertainty stated by the source.

Test: protein stability index of a GFP-peptide fusion (yeast GPS) (PSI 1-4); higher = more stable; sorted into four equal gates, so the index is relative within each strain
Procedure, shortened: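 Tiled 17-residue yeast protein peptides were fused downstream of GFP in a plasmid that also expresses Cherry, and the pooled library was carried in yeast. Mid-log cultures in leucine-free medium were sorted into four equal gates by GFP/Cherry fluorescence ratio, and plasmids from each gate were PCR-amplified and Illumina-sequenced, with reads assigned to strains by barcodes. The protein stability index for each peptide was each gate's read frequency times its gate number, summed.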

## SKSDSDSEERDPKLEKC [ITC1]
doa10∆
  protein stability index: 3 ± 0.14
pdr5∆
  protein stability index: 2.97 ± 0.13
san1∆
  protein stability index: 2.62 ± 0.11
ubr1∆
  protein stability index: 1.84 ± 0.058

## TNNDSNNKNNSITTGND [MED2]
doa10∆
  protein stability index: 2.69 ± 0.1
pdr5∆
  protein stability index: 2.64 ± 0.057
san1∆
  protein stability index: 2.7 ± 0.081
ubr1∆
  protein stability index: 1.87 ± 0.043

## ALAYAGTGNNSAVKRLL [RPN2]
doa10∆
  protein stability index: 2.68 ± 0.1
pdr5∆
  protein stability index: 2.71 ± 0.1
san1∆
  protein stability index: 2.28 ± 0.14
ubr1∆
  protein stability index: 3.26 ± 0.1

## VKDKEEDHIFFKYIYEL [YDL116W/NUP84]
doa10∆
  protein stability index: 1.34 ± 0.07
pdr5∆
  protein stability index: 1.09 ± 0.093
san1∆
  protein stability index: 1.16 ± 0.16
ubr1∆
  protein stability index: 1.06 ± 0.076

## SSSGNTWSLILNECLKT [YML031W/NDC1]
doa10∆
  protein stability index: 1.85 ± 0.066
pdr5∆
  protein stability index: 1.73 ± 0.084
san1∆
  protein stability index: 1.48 ± 0.13
ubr1∆
  protein stability index: 1.52 ± 0.061

## LRGCKFLQSVDITGIRD [GRR1]
doa10∆
  protein stability index: 1.72 ± 0.034
pdr5∆
  protein stability index: 2.03 ± 0.046
san1∆
  protein stability index: 1.89 ± 0.053
ubr1∆
  protein stability index: 1.83 ± 0.04

## IPSAAFNFFEPIKEAKI [YMR129W/POM152]
doa10∆
  protein stability index: 1.98 ± 0.039
pdr5∆
  protein stability index: 2.27 ± 0.037
san1∆
  protein stability index: 2.15 ± 0.044
ubr1∆
  protein stability index: 2.44 ± 0.025

## TNVNPSKNFNVILASSL [YML103C/NUP188]
doa10∆
  protein stability index: 1.82 ± 0.05
pdr5∆
  protein stability index: 2.16 ± 0.048
san1∆
  protein stability index: 1.99 ± 0.08
ubr1∆
  protein stability index: 1.91 ± 0.045

## EFLYPHLNFPNVKFLRI [SNF12]
doa10∆
  protein stability index: 2.21 ± 0.19
pdr5∆
  protein stability index: 2.67 ± 0.27
ubr1∆
  protein stability index: 3.15 ± 0.1

## GRILKWLWPLCRGELKA [CDC53]
doa10∆
  protein stability index: 1.58 ± 0.095
pdr5∆
  protein stability index: 1.64 ± 0.06
san1∆
  protein stability index: 1.32 ± 0.11
ubr1∆
  protein stability index: 1.13 ± 0.045

## NNRRRSRKRGGENVFLK [SIR3]
doa10∆
  protein stability index: 3.6 ± 0.11
pdr5∆
  protein stability index: 3.23 ± 0.084
san1∆
  protein stability index: 3.07 ± 0.086
ubr1∆
  protein stability index: 3.33 ± 0.048

## SFTFASSKTSQPKPLFS [YOR098C/NUP1]
doa10∆
  protein stability index: 2.37 ± 0.042
pdr5∆
  protein stability index: 2.44 ± 0.035
san1∆
  protein stability index: 2.27 ± 0.046
ubr1∆
  protein stability index: 2.69 ± 0.029

## KEEGLQQFNLHEILSEP [MED1]
doa10∆
  protein stability index: 2.97 ± 0.15
pdr5∆
  protein stability index: 3.21 ± 0.15
san1∆
  protein stability index: 3.12 ± 0.12
ubr1∆
  protein stability index: 2.62 ± 0.12

## AMNDACYEKVLESINEG [BRR2]
doa10∆
  protein stability index: 3.15 ± 0.12
pdr5∆
  protein stability index: 2.82 ± 0.17
san1∆
  protein stability index: 2.91 ± 0.095
ubr1∆
  protein stability index: 3.37 ± 0.2

## TVRASSLQDLIYKRGQA [SMC2]
doa10∆
  protein stability index: 2.12 ± 0.073
pdr5∆
  protein stability index: 3 ± 0.088
san1∆
  protein stability index: 2.62 ± 0.08
ubr1∆
  protein stability index: 2.51 ± 0.036

## QNTIDDTEMKMKSLLTE [YIL149C/MLP2]
doa10∆
  protein stability index: 3.25 ± 0.066
pdr5∆
  protein stability index: 3.39 ± 0.054
san1∆
  protein stability index: 3.17 ± 0.067
ubr1∆
  protein stability index: 3.19 ± 0.05

## TDAYLDQYLWYEADQRK [PRP8]
doa10∆
  protein stability index: 3.18 ± 0.12
pdr5∆
  protein stability index: 3.21 ± 0.17
san1∆
  protein stability index: 3.02 ± 0.18
ubr1∆
  protein stability index: 3.12 ± 0.081

## LSRGYTCPGLSLTDVAF [ECM29]
doa10∆
  protein stability index: 3.24 ± 0.12
pdr5∆
  protein stability index: 3.19 ± 0.084
san1∆
  protein stability index: 2.29 ± 0.11
ubr1∆
  protein stability index: 2.68 ± 0.12

## DKFKLNENDLKTYNCLH [SMC1]
doa10∆
  protein stability index: 2.7 ± 0.14
pdr5∆
  protein stability index: 2.5 ± 0.12
ubr1∆
  protein stability index: 2.85 ± 0.094

## ATLNYIDKNHGFERLTV [SRB7]
pdr5∆
  protein stability index: 3.28 ± 0.15
ubr1∆
  protein stability index: 3.49 ± 0.13

## SDDAAQFMKRFPMPYEN [ECM29]
doa10∆
  protein stability index: 2.96 ± 0.068
pdr5∆
  protein stability index: 3 ± 0.14
san1∆
  protein stability index: 2.9 ± 0.082

## SIKNNVAMCFVINKLDR [SNU114]
doa10∆
  protein stability index: 1.9 ± 0.14
pdr5∆
  protein stability index: 1.91 ± 0.12

## KLDSKKTVPFQVNQLQR [SSN3]
doa10∆
  protein stability index: 3.15 ± 0.063
pdr5∆
  protein stability index: 3.28 ± 0.042
san1∆
  protein stability index: 3.19 ± 0.046
ubr1∆
  protein stability index: 3.12 ± 0.049

## VQIGAEIILDFLQDKVQ [CSI1]
doa10∆
  protein stability index: 3.03 ± 0.085
pdr5∆
  protein stability index: 3.07 ± 0.066
san1∆
  protein stability index: 2.88 ± 0.061
ubr1∆
  protein stability index: 3.06 ± 0.047

## YPPMPFDGFLFGSRVMI [FAS1]
doa10∆
  protein stability index: 2.64 ± 0.075
pdr5∆
  protein stability index: 2.75 ± 0.071
san1∆
  protein stability index: 2.53 ± 0.11
ubr1∆
  protein stability index: 2.54 ± 0.048

## VNDFSDITSDQLLQRLN [SMC3]
doa10∆
  protein stability index: 2.56 ± 0.055
pdr5∆
  protein stability index: 2.24 ± 0.053
san1∆
  protein stability index: 2.41 ± 0.083
ubr1∆
  protein stability index: 2.6 ± 0.04

## WAMQGISYLQEVQCTST [PCI8]
doa10∆
  protein stability index: 3.32 ± 0.15
pdr5∆
  protein stability index: 3.06 ± 0.13
san1∆
  protein stability index: 2.19 ± 0.16
ubr1∆
  protein stability index: 3.02 ± 0.099

## KRNKLLTIFDSVDESAR [YJL039C/NUP192]
doa10∆
  protein stability index: 2.26 ± 0.07
pdr5∆
  protein stability index: 2.37 ± 0.072
san1∆
  protein stability index: 2.32 ± 0.061
ubr1∆
  protein stability index: 2.36 ± 0.066

## TPTHSDSHEDMKRRRLE [ROX3]
doa10∆
  protein stability index: 2.89 ± 0.15
pdr5∆
  protein stability index: 3.33 ± 0.15
san1∆
  protein stability index: 3.14 ± 0.18
ubr1∆
  protein stability index: 3.14 ± 0.091

## IDDKGVLMERKDERGEG [ITC1]
doa10∆
  protein stability index: 3 ± 0.21
pdr5∆
  protein stability index: 3.5 ± 0.18
san1∆
  protein stability index: 3 ± 0.15
ubr1∆
  protein stability index: 3.02 ± 0.21

## ERKSKTYVITKNGKIYL [RET1]
doa10∆
  protein stability index: 2.76 ± 0.051
pdr5∆
  protein stability index: 2.54 ± 0.057
san1∆
  protein stability index: 2.5 ± 0.059
ubr1∆
  protein stability index: 2.47 ± 0.035

## SAVLLETTLGEMAEKID [PRP8]
doa10∆
  protein stability index: 1.12 ± 0.13
pdr5∆
  protein stability index: 1.55 ± 0.098
san1∆
  protein stability index: 1.21 ± 0.2
ubr1∆
  protein stability index: 1.65 ± 0.11

## MDTIQDKLINDVTAIQT [ECM29]
doa10∆
  protein stability index: 3.22 ± 0.083
pdr5∆
  protein stability index: 3.23 ± 0.1
san1∆
  protein stability index: 3.2 ± 0.085
ubr1∆
  protein stability index: 3.34 ± 0.055

## FNIIREFRSAAGQLALD [YDL116W/NUP84]
doa10∆
  protein stability index: 2.92 ± 0.12
pdr5∆
  protein stability index: 3.16 ± 0.12
san1∆
  protein stability index: 2.94 ± 0.076
ubr1∆
  protein stability index: 3.25 ± 0.087

## EILEHICYDVNDWQMLE [RPB2]
doa10∆
  protein stability index: 2.84 ± 0.12
pdr5∆
  protein stability index: 3.02 ± 0.086
san1∆
  protein stability index: 2.74 ± 0.08
ubr1∆
  protein stability index: 2.98 ± 0.081

## QMIDTSILPTRDDLFVR [NUT1]
doa10∆
  protein stability index: 2.86 ± 0.06
pdr5∆
  protein stability index: 2.88 ± 0.062
san1∆
  protein stability index: 2.73 ± 0.08
ubr1∆
  protein stability index: 2.33 ± 0.044

## STKKDTVQLTFLIDVLK [YCG1]
doa10∆
  protein stability index: 2.38 ± 0.096
pdr5∆
  protein stability index: 2.72 ± 0.068
san1∆
  protein stability index: 2.47 ± 0.078
ubr1∆
  protein stability index: 2.81 ± 0.068

## YVRTEETDGKHGKRRSQ [YMR129W/POM152]
doa10∆
  protein stability index: 1.46 ± 0.041
pdr5∆
  protein stability index: 1.85 ± 0.063
san1∆
  protein stability index: 1.57 ± 0.11
ubr1∆
  protein stability index: 2 ± 0.053

## VAGSKCWAVRADVHFLD [RRP45]
doa10∆
  protein stability index: 2.07 ± 0.17
pdr5∆
  protein stability index: 2.23 ± 0.14
ubr1∆
  protein stability index: 2.26 ± 0.22

## KRELKRAQEEVKRIQSV [RPT3]
doa10∆
  protein stability index: 3.23 ± 0.096
pdr5∆
  protein stability index: 3.39 ± 0.14
san1∆
  protein stability index: 2.91 ± 0.096
ubr1∆
  protein stability index: 3.38 ± 0.083

## TGLVSIRGKILTGTVVS [RPS11A]
doa10∆
  protein stability index: 2.45 ± 0.052
pdr5∆
  protein stability index: 2.75 ± 0.053
san1∆
  protein stability index: 2.58 ± 0.053
ubr1∆
  protein stability index: 2.89 ± 0.038

## ALETENMEIRNLRLKIL [GRR1]
doa10∆
  protein stability index: 3.14 ± 0.065
pdr5∆
  protein stability index: 2.9 ± 0.043
san1∆
  protein stability index: 2.82 ± 0.052
ubr1∆
  protein stability index: 2.7 ± 0.03

## VNGVPLRRVNARYVIAT [RPL6A]
doa10∆
  protein stability index: 1.61 ± 0.095
pdr5∆
  protein stability index: 1.9 ± 0.066
san1∆
  protein stability index: 1.37 ± 0.11
ubr1∆
  protein stability index: 1.23 ± 0.05

## AATVHTATSSSIILSDK [SSN2]
doa10∆
  protein stability index: 2.19 ± 0.043
pdr5∆
  protein stability index: 2.29 ± 0.032
san1∆
  protein stability index: 2.02 ± 0.053
ubr1∆
  protein stability index: 2.39 ± 0.041

## NNGLPECQVIAAEGLCK [YCG1]
doa10∆
  protein stability index: 2.53 ± 0.12
pdr5∆
  protein stability index: 3.47 ± 0.16
san1∆
  protein stability index: 1.65 ± 0.15
ubr1∆
  protein stability index: 2.72 ± 0.048

## QIKGLQWMVSLFNNHLN [SNF2]
doa10∆
  protein stability index: 1.79 ± 0.12
pdr5∆
  protein stability index: 1.74 ± 0.097
san1∆
  protein stability index: 1.4 ± 0.14
ubr1∆
  protein stability index: 1.36 ± 0.058

## YKVLKQTHPDTGISQKS [HTB1]
doa10∆
  protein stability index: 2.42 ± 0.077
pdr5∆
  protein stability index: 2.51 ± 0.074
san1∆
  protein stability index: 2.21 ± 0.081
ubr1∆
  protein stability index: 1.68 ± 0.04

## VNESRNSDDIIDVDMDA [SRB5]
doa10∆
  protein stability index: 2.27 ± 0.065
pdr5∆
  protein stability index: 2.2 ± 0.053
san1∆
  protein stability index: 2.57 ± 0.078
ubr1∆
  protein stability index: 2.59 ± 0.052

## NFADKYDEVKKHWGGGI [RPL8A]
doa10∆
  protein stability index: 2.66 ± 0.21
pdr5∆
  protein stability index: 3.2 ± 0.12
san1∆
  protein stability index: 2.97 ± 0.099
ubr1∆
  protein stability index: 3.05 ± 0.14

## QNDQWSIQMEFMLRKQD [SSN2]
doa10∆
  protein stability index: 2.53 ± 0.071
pdr5∆
  protein stability index: 2.58 ± 0.088
san1∆
  protein stability index: 2.4 ± 0.12
ubr1∆
  protein stability index: 2.81 ± 0.074

## NRDRSFQLLEPLSTYNK [PGD1]
doa10∆
  protein stability index: 3 ± 0.051
pdr5∆
  protein stability index: 2.95 ± 0.062
san1∆
  protein stability index: 2.93 ± 0.053
ubr1∆
  protein stability index: 2.72 ± 0.045
